Experimental data: the supplement of paper PMC12042874
± gives the uncertainty stated by the source.

Assay: amyloid nucleation score (Sup35N fusion, yeast selection) (log enrichment); library NNK1; higher = more nucleation; inactive = no reads after selection
Summary of the method: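 Output and input plasmid inserts were sequenced by Illumina after psi-negative yeast carrying Sup35N fused to peptides of 20 random codons had been induced 24 hours with 100 μM copper sulfate and grown 7 days at 30°C on medium lacking adenine and uracil. The nucleation score is the DiMSum log enrichment of output over input reads, centred on the mode score of non-aggregating sequences. Sequences with under 100 input reads were excluded.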

KSLQRWRDRCRDHVLSAS and VDLPFMLAKVR are within error of each other in amyloid nucleation score: -0.083 ± 1 for the first, 0.856 ± 0.71 for the second.

GCMVFS and HLSEFAVGVCEVY are within error of each other in amyloid nucleation score: 0.352 ± 0.76 for the first, 1.27 ± 0.56 for the second.

GYIGICGNKYYFPVDRYRAC and ICSIITPRPGFPTVLRSMKK are within error of each other in amyloid nucleation score: 1.28 ± 0.57 for the first, 0.846 ± 0.81 for the second.

NTMPSGWNRYTVYG and GRISRFLFQRDNVWPSLAKQ are within error of each other in amyloid nucleation score: -0.634 ± 0.44 for the first, 0.171 ± 0.52 for the second.

LSRLRLSAAGSADRESLVVS and CKVQLSQDRAVECGVNHGVY are within error of each other in amyloid nucleation score: 0.538 ± 0.5 for the first, -0.01 ± 0.44 for the second.

First: TSSTRILISTTELVRNYCYC
Second: SVSYRDCVVKILK
The amyloid nucleation score of the first is lower: 1.37 ± 0.26 for the first, 4 ± 0.074 for the second.

First: QFFLNTRLSLFALYL
Second: NPKSFNGCVFRLGGVPYFVS
The amyloid nucleation score of the first is higher: 5.35 ± 0.059 for the first, 0.076 ± 0.36 for the second.

Compared with DILQDFIGQPLRSN, TIFLSF is lower in amyloid nucleation score: 1.04 ± 0.6 for the first, -0.284 ± 0.27 for the second.

ISALRFSTLRSCGAGPGVAS and GYLLAERDLNIATARGSLLR are within error of each other in amyloid nucleation score: -0.859 ± 1.2 for the first, -0.514 ± 0.65 for the second.

MKIVNVHAWATQLARGDICE and GHVWEQGRQLGSAPKDR are within error of each other in amyloid nucleation score: 0.745 ± 0.83 for the first, 0.1 ± 0.71 for the second.

TRLHRSQYSLSQSYNRTRKM and WVLNG are within error of each other in amyloid nucleation score: 0.39 ± 1.2 for the first, -0.514 ± 0.34 for the second.

GAYLLPLSIWNLGPSNGR and DSLSGSICGFRLYALLFTLT are within error of each other in amyloid nucleation score: 0.132 ± 0.44 for the first, -0.113 ± 0.53 for the second.

WVVISMSVRHVLACNLLPIR and GASGGVTASLLKTRITVTWV are within error of each other in amyloid nucleation score: -0.013 ± 0.76 for the first, -0.271 ± 0.79 for the second.

With IWYSVWNSNGFSHSRHGQQR the amyloid nucleation score was “inactive”.
With RSFWYDHGIRVGLRLYNCSM the amyloid nucleation score was “inactive”.
In the case of KLCCSLVNSIMNLFAMSAAV, the amyloid nucleation score is reported as “inactive”.
